This note sets out measurements from patent publication US20160185832A1 (University of Pennsylvania, published 2016).

Assay [1] deals with microtubule network of cultured human cells (hTERT-RPE1, 293T) (human, UniProt P68363 1-451; P07437 1-444). The experiment in a line: cell-based or functional assay.
Assay [2] addresses T1, pure, pre-polymerized, taxol-stabilized microtubules of bovine tubulin (Cytoskeleton) (bovine, UniProt P81947 1-451; Q6B856 1-445, limits assumed).
T1 construct: Polymer of alpha/beta tubulin dimers, polymerized with GTP and stabilized with 10 µM taxol; also called MT; MTs
The experiment in a line: in vitro microtubule co-sedimentation, percent of construct in the microtubule pellet (FIG. 4D). Here is the method: (§1) Crude TNT T7 reaction products were diluted 1:1 in BRB80 supplemented with 1 mM GTP and 10 μM taxol. The diluted products were then incubated at 30° C. for 30 minutes in either the presence or absence of pure, pre-polymerized microtubules. Reactions were then centrifuged through a 40% sucrose cushion at 48,000×g for 30 minutes, the supernatant was collected, and the pellet washed once with warm BRB80 and resuspended in 1×SDS PAGE sample buffer. Both fractions were subjected to SDS-PAGE and transferred to nitrocellulose. The presence of tubulin in the pellets was confirmed by Ponceau staining, and GFP-tagged CEP290 constructs were detected by immunoblotting.

The target of assay [3] is T1, pure, pre-polymerized, taxol-stabilized …. As to the kind of experiment: microtubule co-sedimentation, 1 nM purified 6×His truncation M with increasing microtubules, Coomassie gel, non-linear regression. The procedure:
For the direct microtubule binding assay, 1 nM of recombinantly expressed and purified 6×His tagged CEP290 truncation M was incubated at 30° C. for 30 minutes with increasing amounts of pure, prepolymerized microtubules. Reactions were centrifuged and subjected to SDS-PAGE as above, and tubulin and CEP290 truncation M were detected by Coomassie blue staining.

Assay [4] shares this target. The experiment in a line: in vitro microtubule co-sedimentation of in vitro translated GFP fusions, western blot. Here is the method:
as §1
For orientation: A western blot detects proteins with antibodies after separation by electrophoresis.

T1 sequence (P81947 whole entry, chain 1 of 2): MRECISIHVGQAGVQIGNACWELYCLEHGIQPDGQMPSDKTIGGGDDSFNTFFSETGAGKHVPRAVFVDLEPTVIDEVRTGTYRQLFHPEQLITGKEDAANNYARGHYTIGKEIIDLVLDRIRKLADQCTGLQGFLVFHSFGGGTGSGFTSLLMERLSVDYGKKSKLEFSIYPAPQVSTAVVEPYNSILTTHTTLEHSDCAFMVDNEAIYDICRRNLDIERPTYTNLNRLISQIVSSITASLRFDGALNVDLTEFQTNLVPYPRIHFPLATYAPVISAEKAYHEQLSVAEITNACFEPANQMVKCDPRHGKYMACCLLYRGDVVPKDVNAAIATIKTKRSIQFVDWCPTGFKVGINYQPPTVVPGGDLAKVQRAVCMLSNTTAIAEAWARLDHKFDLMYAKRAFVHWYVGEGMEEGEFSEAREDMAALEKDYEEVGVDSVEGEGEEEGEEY
T1 sequence (Q6B856 whole entry, chain 2 of 2): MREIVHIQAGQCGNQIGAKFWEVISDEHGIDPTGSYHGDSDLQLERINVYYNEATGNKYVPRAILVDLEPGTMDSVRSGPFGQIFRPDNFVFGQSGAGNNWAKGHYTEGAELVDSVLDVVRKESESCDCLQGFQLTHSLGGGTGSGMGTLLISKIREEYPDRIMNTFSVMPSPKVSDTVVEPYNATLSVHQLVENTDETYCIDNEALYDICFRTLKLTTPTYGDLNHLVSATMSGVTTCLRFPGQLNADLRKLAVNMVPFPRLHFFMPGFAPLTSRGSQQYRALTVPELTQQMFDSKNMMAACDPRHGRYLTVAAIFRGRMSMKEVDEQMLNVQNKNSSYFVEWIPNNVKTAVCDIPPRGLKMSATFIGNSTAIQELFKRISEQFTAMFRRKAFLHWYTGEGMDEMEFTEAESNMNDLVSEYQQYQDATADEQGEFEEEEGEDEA
Sequence of microtubule network of cultured human cells (hTERT-RPE1, 293T) (P68363 whole entry, chain 1 of 2): as the sequence (P81947 whole entry, chain 1 of 2) above
Sequence of microtubule network of cultured human cells (hTERT-RPE1, 293T) (P07437 whole entry, chain 2 of 2): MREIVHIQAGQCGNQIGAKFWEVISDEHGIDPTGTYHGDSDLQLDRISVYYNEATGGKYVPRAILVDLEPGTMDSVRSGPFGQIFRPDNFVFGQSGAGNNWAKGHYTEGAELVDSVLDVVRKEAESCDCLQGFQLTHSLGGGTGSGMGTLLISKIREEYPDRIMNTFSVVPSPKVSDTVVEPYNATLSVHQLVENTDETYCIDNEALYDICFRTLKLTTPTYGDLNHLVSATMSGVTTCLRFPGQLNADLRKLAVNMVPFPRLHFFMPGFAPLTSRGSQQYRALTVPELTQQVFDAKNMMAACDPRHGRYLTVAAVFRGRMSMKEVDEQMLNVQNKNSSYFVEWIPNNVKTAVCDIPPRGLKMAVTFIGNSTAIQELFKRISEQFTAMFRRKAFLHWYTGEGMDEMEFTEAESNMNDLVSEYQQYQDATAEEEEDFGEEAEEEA

B1: GFP fusion of CEP290 aa 1-1966 (other)
chain: MPPNINWKEIMKVDPDDLPRQEELADNLLISLSKVEVNELKSEKQENVIHLFRITQSLMKMKAQEVELALEEVEKAGEEQAKFENQLKTKVMKLENELEMAQQSAGGRDTRFLRNEICQLEKQLEQKDRELEDMEKELEKEKKVNEQLALRNEEAENENSKLRRENKRLKKKNEQLCQDIIDYQKQIDSQKETLLSRRGEDSDYRSQLSKKNYELIQYLDEIQTLTEANEKIEVQNQEMRKNLEESVQEMEKMTDEYNRMKAIVHQTDNVIDQLKKENDHYQLQVQELTDLLKSKNEEDDPIMVAVNAKVEEWKLILSSKDDEIIEYQQMLHNLREKLKNAQLDADKSNVMALQQGIQERDSQIKMLTEQVEQYTKEMEKNTCIIEDLKNELQRNKGASTLSQQTHMKIQSTLDILKEKTKEAERTAELAEADAREKDKELVEALKRLKDYESGVYGLEDAVVEIKNCKNQIKIRDREIEILTKEINKLELKISDFLDENEALRERVGLEPKTMIDLTEFRNSKHLKQQQYRAENQILLKEIESLEEERLDLKKKIRQMAQERGKRSATSGLTTEDLNLTENISQGDRISERKLDLLSLKNMSEAQSKNEFLSRELIEKERDLERSRTVIAKFQNKLKELVEENKQLEEGMKEILQAIKEMQKDPDVKGGETSLIIPSLERLVNAIESKNAEGIFDASLHLKAQVDQLTGRNEELRQELRESRKEAINYSQQLAKANLKIDHLEKETSLLRQSEGSNVVFKGIDLPDGIAPSSASIINSQNEYLIHLLQELENKEKKLKNLEDSLEDYNRKFAVIRHQQSLLYKEYLSEKETWKTESKTIKEEKRKLEDQVQQDAIKVKEYNNLLNALQMDSDEMKKILAENSRKITVLQVNEKSLIRQYTTLVELERQLRKENEKQKNELLSMEAEVCEKIGCLQRFKEMAIFKIAALQKVVDNSVSLSELELANKQYNELTAKYRDILQKDNMLVQRTSNLEHLECENISLKEQVESINKELEITKEKLHTIEQAWEQETKLGNESSMDKAKKSITNSDIVSISKKITMLEMKELNERQRAEHCQKMYEHLRTSLKQMEERNFELETKFAELTKINLDAQKVEQMLRDELADSVSKAVSDADRQRILELEKNEMELKVEVSKLREISDIARRQVEILNAQQQSRDKEVESLRMQLLDYQAQSDEKSLIAKLHQHNVSLQLSEATALGKLESITSKLQKMEAYNLRLEQKLDEKEQALYYARLEGRNRAKHLRQTIQSLRRQFSGALPLAQQEKFSKTMIQLQNDKLKIMQEMKNSQQEHRNMENKTLEMELKLKGLEELISTLKDTKGAQKVINWHMKIEELRLQELKLNRELVKDKEEIKYLNNIISEYERTISSLEEEIVQQNKFHEERQMAWDQREVDLERQLDIFDRQQNEILNAAQKFEEATGSIPDPSLPLPNQLEIALRKIKENIRIILETRATCKSLEEKLKEKESALRLAEQNILSRDKVINELRLRLPATAEREKLIAELGRKEMEPKSHHTLKIAHQTIANMQARLNQKEEVLKKYQRLLEKAREEQREIVKKHEEDLHILHHRLELQADSSLNKFKQTAWDLMKQSPTPVPTNKHFIRLAEMEQTVAEQDDSLSSLLVKLKKVSQDLERQREITELKVKEFENIKLQLQENHEDEVKKVKAEVEDLKYLLDQSQKESQCLKSELQAQKEANSRAPTTTMRNLVERLKSQLALKEKQQKALSRALLELRAEMTAAAEERIISATSQKEAHLNVQQIVDRHTRELKTQVEDLNENLLKLKEALKTSKNRENSLTDNLNDLNNELQKKQKAYNKILREKEEIDQENDELKRQIKRLTSGLQGKPLTDNKQSLIEELQRKVKKLENQLEGKVEEVDLKPMKEKNAKEELIRWEEGKKWQAKIEGIRNKLKEKEGEVFTLTKQLNTLKDLFAKADKEKLTLQRKLKT
notes: The text says only 'lacking the C-terminus'; also called truncation lacking the C-terminus; not shown: N-terminal GFP tag from pcDNA-DEST53 (Gateway)
As for B1, in assay [1], the “percent of transfected cells with increased microtubule acetylation and bundling” value was roughly 40%; the “percent of transfected hTERT-RPE1 cells with a fibrillar localization pattern” value is roughly 60%. Further, the “percent associated with microtubules” value in assay [2] is less than 50%.

B2: 6×His tagged CEP290 truncation M (aa 1695-1966), recombinantly expressed and purified (other)
chain: DQSQKESQCLKSELQAQKEANSRAPTTTMRNLVERLKSQLALKEKQQKALSRALLELRAEMTAAAEERIISATSQKEAHLNVQQIVDRHTRELKTQVEDLNENLLKLKEALKTSKNRENSLTDNLNDLNNELQKKQKAYNKILREKEEIDQENDELKRQIKRLTSGLQGKPLTDNKQSLIEELQRKVKKLENQLEGKVEEVDLKPMKEKNAKEELIRWEEGKKWQAKIEGIRNKLKEKEGEVFTLTKQLNTLKDLFAKADKEKLTLQRKLKT
notes: Expressed in E. coli BL21(DE3)pLysS, purified on Ni-NTA; also called region M; CEP290 region M; not shown: N-terminal 6×His tag from pDest-527
Usually Kd stands for the concentration at which binding is half-saturated. Low readings indicate higher affinity, high ones lower affinity. In assay [3], B2 showed a Kd of roughly 100 nM.

B3: GFP-tagged "Deleted" CEP290 truncation (part of the microtubule binding region deleted in the rd16 mouse) (other)
chain: DQSQKESQCLKSELQAQKEANSRAPTTTMRNLVERLKSQLALKEKQQKALSRALLELRAEMTAAAEERIISATSQKEAHLNVQQIVDRHTRELKTQVEDLNENLLKLKEALKTSKNRENSLTDNLNDLNNELQKKQKAYNKILREKEEIDQENDELKRQIKRLTSGLQGKPLTDNKQSLIEELQRKVKKLENQLEGKVEEVDLKPMKEK
notes: not shown: N-terminal GFP tag from pcDNA-DEST53 (Gateway)
Take B3: the binding result in assay [4] is “no binding”.
